Here are results for two molecules from publication PMC3115021, “Dynamics of Cdk1 Substrate Specificity during the Cell Cycle” (Molecular Cell, 2011).

What all share (assay): Quantitative phosphorylation assay of T33-Sic1ΔC constructs and recombinant substrates
What all share (format): biochemical
Holding throughout (conditions): Table S2; purified protein substrate; relative values, not divided by [S]

For one series, the target named is T1, Clb5hpm-Cdk1 (Saccharomyces cerevisiae, UniProt P00546).
T1 construct: made in house; host or cells: S. cerevisiae strain DOM0963 (gal-CLB5hpm-TAP, sic1 deleted); Cks1 from bacteria
Put shortly: (§1)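 Yeast cyclin-Cdk1 complexes (1–10 nM, TAP-purified) phosphorylated 6His-T33-Sic1ΔC (other S/T-P sites mutated to Ala-Ala) or recombinant substrates at 0.5–2 μM, below KM, with 32P-γ-ATP. Initial velocities (≤10% turnover) from two or more time points, SDS-PAGE stopped; relative kcat/KM from v0 ratios.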

A further series deals with T2, Clb3hpm-Cdk1 (Saccharomyces cerevisiae, UniProt P00546+P24870).
T2 construct: made in house; host or cells: S. cerevisiae strain MK0168 (gal-CLB3hpm-TAP, sic1 deleted); Cks1 from bacteria
The method in brief: as §1

For a further series, the target named is T3, Clb2hpm-Cdk1 (Saccharomyces cerevisiae, UniProt P00546).
T3 construct: made in house; host or cells: S. cerevisiae strain DOM0964 (gal-CLB2hpm-TAP, sic1 deleted); Cks1 from bacteria
The method in brief: as §1

Another series deals with T4, Cln2-Cdk1 (Saccharomyces cerevisiae, UniProt P00546+P20438).
T4 construct: We purified the four cyclin-Cdk1 complexes from yeast; made in house; host or cells: S. cerevisiae strain DMY305 (galactose-induced); Cks1 from bacteria

The target of another series is T5, Clb2-Cdk1 (Saccharomyces cerevisiae, UniProt P00546+P24869).
T5 construct: We purified the four cyclin-Cdk1 complexes from yeast; made in house; host or cells: S. cerevisiae strain DOM0077 (gal-CLB2-TAP, sic1 deleted); Cks1 from bacteria

The next series has as its target T6, Clb3-Cdk1 (Saccharomyces cerevisiae, UniProt P00546+P24870).
T6 construct: We purified the four cyclin-Cdk1 complexes from yeast; made in house; host or cells: S. cerevisiae strain DOM0957 (gal-CLB3-TAP, sic1 deleted); Cks1 from bacteria

The target in a further series is T7, Clb5-Cdk1 (Saccharomyces cerevisiae, UniProt P00546+P30283).
T7 construct: We purified the four cyclin-Cdk1 complexes from yeast; made in house; host or cells: S. cerevisiae strain DOM0076 (gal-CLB5-TAP, sic1 deleted); Cks1 from bacteria
T7 sequence (P00546 2-298 limits assumed): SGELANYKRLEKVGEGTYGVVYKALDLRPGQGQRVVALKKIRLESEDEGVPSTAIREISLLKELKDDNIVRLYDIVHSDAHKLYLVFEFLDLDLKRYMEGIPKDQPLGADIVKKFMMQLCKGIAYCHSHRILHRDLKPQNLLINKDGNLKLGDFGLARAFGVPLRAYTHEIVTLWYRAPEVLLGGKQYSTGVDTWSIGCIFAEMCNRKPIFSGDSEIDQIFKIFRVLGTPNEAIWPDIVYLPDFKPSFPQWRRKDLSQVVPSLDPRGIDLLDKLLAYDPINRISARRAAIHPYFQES
T7 sequence (P30283 whole entry partner): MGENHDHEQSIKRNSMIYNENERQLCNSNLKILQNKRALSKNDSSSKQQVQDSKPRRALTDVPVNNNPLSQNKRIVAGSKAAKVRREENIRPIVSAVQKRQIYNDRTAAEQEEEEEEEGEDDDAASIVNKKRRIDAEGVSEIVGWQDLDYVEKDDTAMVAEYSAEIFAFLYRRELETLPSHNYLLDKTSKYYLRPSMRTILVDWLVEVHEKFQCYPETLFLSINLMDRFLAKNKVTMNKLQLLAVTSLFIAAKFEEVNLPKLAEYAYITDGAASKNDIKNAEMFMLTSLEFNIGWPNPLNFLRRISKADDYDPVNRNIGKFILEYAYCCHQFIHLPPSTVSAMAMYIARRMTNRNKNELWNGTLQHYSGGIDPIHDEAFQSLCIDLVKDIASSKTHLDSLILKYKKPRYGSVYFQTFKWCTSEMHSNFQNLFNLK
T7 sequence (P20486 whole entry partner): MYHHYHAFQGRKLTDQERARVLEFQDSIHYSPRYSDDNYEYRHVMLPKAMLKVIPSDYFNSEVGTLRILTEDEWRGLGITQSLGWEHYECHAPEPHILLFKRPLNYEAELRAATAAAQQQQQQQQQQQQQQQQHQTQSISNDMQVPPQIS

T1 sequence (P00546 2-298 limits assumed): as the sequence (P00546 2-298 limits assumed) above
T5 sequence (P00546 2-298 limits assumed): as above
T5 sequence (P24869 2-491 partner limits assumed): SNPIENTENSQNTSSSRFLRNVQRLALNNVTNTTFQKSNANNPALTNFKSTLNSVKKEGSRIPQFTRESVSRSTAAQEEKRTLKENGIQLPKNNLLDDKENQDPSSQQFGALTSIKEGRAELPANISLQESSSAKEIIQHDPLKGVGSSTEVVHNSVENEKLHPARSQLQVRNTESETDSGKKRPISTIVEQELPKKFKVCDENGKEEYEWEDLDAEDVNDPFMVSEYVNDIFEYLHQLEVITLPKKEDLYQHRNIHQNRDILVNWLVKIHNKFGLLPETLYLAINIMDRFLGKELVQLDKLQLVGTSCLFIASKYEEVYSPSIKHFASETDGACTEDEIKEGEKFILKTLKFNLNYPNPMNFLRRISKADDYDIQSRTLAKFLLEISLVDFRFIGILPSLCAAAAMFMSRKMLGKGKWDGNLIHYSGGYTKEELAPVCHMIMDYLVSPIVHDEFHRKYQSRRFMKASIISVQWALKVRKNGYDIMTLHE
T5 sequence (P20486 whole entry partner): as the sequence (P20486 whole entry partner) above
T3 sequence (P00546 2-298 limits assumed): as the sequence (P00546 2-298 limits assumed) above
T4 sequence (P00546 2-298 limits assumed): as above
T4 sequence (P20438 whole entry partner): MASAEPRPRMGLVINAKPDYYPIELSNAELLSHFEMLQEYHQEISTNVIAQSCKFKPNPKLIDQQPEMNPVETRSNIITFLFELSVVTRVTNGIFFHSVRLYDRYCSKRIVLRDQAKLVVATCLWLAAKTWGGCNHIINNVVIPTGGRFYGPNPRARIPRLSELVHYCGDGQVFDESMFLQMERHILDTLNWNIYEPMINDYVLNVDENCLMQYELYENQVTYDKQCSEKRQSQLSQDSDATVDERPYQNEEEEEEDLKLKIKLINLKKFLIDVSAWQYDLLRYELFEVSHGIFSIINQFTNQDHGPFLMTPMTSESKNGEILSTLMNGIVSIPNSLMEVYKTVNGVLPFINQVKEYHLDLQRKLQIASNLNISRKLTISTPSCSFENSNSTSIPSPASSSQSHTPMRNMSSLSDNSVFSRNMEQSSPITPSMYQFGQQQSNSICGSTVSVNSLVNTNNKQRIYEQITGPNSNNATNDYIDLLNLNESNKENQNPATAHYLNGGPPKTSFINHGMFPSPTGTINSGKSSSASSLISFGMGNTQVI
T4 sequence (P20486 whole entry partner): as the sequence (P20486 whole entry partner) above
T6 sequence (P00546 2-298 limits assumed): as the sequence (P00546 2-298 limits assumed) above
T6 sequence (P24870 whole entry partner): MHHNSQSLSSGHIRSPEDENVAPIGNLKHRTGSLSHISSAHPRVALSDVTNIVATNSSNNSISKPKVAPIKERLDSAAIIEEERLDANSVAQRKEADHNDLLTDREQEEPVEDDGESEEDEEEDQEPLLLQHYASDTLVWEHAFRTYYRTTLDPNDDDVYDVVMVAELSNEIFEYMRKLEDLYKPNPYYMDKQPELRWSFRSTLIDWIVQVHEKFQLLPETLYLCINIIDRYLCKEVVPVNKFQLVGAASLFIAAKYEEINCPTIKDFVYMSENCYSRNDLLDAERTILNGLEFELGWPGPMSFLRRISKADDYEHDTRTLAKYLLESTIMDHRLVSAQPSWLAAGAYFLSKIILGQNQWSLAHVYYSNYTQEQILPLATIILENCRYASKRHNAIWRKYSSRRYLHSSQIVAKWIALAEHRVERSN
T6 sequence (P20486 whole entry partner): as the sequence (P20486 whole entry partner) above

B1: SWI6: cell cycle-related transcription factor, tested as Cdk1 substrate (protein, UniProt P09959 1-803, looked up)
Regulatory protein SWI6: MALEEVVRYLGPHNEIPLTLTRDSETGHFLLKHFLPILQQYHDTGNINETNPDSFPTDEERNKLLAHYGIAVNTDDRGELWIELEKCLQLLNMLNLFGLFQDAFEFEEPETDQDEEDPSHSKLPENKTKSENSKDNISSKRINNLQDMSLDSDAHRELGSPLKKLKIDTSVIDAESDSTPNTARGKPNDDINKGPSGDNENNGTDDNDRTAGPIITFTHDLTSDFLSSPLKIMKALPSPVVNDNEQKMKLEAFLQRLLFPEIQEMPTSLNNDSSNRNSEGGSSNQQQQHVSFDSLLQEVNDAFPNTQLNLNIPVDEHGNTPLHWLTSIANLELVKHLVKHGSNRLYGDNMGESCLVKAVKSVNNYDSGTFEALLDYLYPCLILEDSMNRTILHHIIITSGMTGCSAAAKYYLDILMGWIVKKQNRPIQSGTNEKESKPNDKNGERKDSILENLDLKWIIANMLNAQDSNGDTCLNIAARLGNISIVDALLDYGADPFIANKSGLRPVDFGAGTSKLQNTNGGDENSKMVSKGDYDGQKNGKAKKIRSQLLKNPPETTSLINDVQNLLNSISKDYENETVQYNEKLEKLHKELNEQREELANSREQLANVKQLKDEYSLMQEQLTNLKAGIEEEEESFREESKKLGIIADESSGIDWDSSEYDADEPFKVEFLSDFLEDKLQKNYEGDISKLLEAESKEQIMEQIRNQLPAEKIQSMLPPTVLLKARINAYKRNDKHLTNVLDTISTKQSELENKFRRVLSLCLKIDENKVDNMLDGLLQAISSEDPQDIDTDEMQDFLKKHAS
As to B1, in the series with Clb5hpm-Cdk1, the “kcat/KM, Clb5hpm” value is on record as 0.058 relative units. Besides, in the series with Clb3hpm-Cdk1, the “kcat/KM, Clb3hpm” value turned out to be 0.075 relative units. In the series with Clb2hpm-Cdk1, the “kcat/KM, Clb2hpm” value is 0.481 relative units. Also, the “kcat/KM, Cln2” value with Cln2-Cdk1 came to 0.004 relative units. Also, in the series with Clb2-Cdk1, the “kcat/KM, Clb2” value was determined as 0.412 relative units. Further, the “kcat/KM, Clb3” value with Clb3-Cdk1 came out at 0.105 relative units. Moreover, in the series with Clb5-Cdk1, the “kcat/KM, Clb5” value is on record as 0.118 relative units.

B2: SWI5: purified yeast protein tested as Cdk1 substrate (protein, UniProt P08153 1-709, looked up)
Transcriptional factor SWI5: MDTSNSWFDASKVQSLNFDLQTNSYYSNARGSDPSSYAIEGEYKTLATDDLGNILNLNYGETNEVIMNEINDLNLPLGPLSDEKSVKVSTFSELIGNDWQSMNFDLENNSREVTLNATSLLNENRLNQDSGMTVYQKTMSDKPHDEKKISMADNLLSTINKSEINKGFDRNLGELLLQQQQELREQLRAQQEANKKLELELKQTQYKQQQLQATLENSDGPQFLSPKRKISPASENVEDVYANSLSPMISPPMSNTSFTGSPSRRNNRQKYCLQRKNSSGTVGPLCFQELNEGFNDSLISPKKIRSNPNENLSSKTKFITPFTPKSRVSSATSNSANITPNNLRLDFKINVEDQESEYSEKPLGLGIELLGKPGPSPTKSVSLKSASVDIMPTIPGSVNNTPSVNKVSLSSSYIDQYTPRGKQLHFSSISENALGINAATPHLKPPSQQARHREGVFNDLDPNVLTKNTDNEGDDNEENEPESRFVISETPSPVLKSQSKYEGRSPQFGTHIKEINTYTTNSPSKITRKLTTLPRGSIDKYVKEMPDKTFECLFPGCTKTFKRRYNIRSHIQTHLEDRPYSCDHPGCDKAFVRNHDLIRHKKSHQEKAYACPCGKKFNREDALVVHRSRMICSGGKKYENVVIKRSPRKRGRPRKDGTSSVSSSPIKENINKDHNGQLMFKLEDQLRRERSYDGNGTGIMVSPMKTNQR
For the molecule B2, the “kcat/KM, Clb5hpm” value in the series with Clb5hpm-Cdk1 is 0.172 relative units. Further, the “kcat/KM, Clb3hpm” value in the series with Clb3hpm-Cdk1 was 0.207 relative units. Also, the “kcat/KM, Clb2hpm” value with Clb2hpm-Cdk1 came out at 1.387 relative units. Also, in the series with Cln2-Cdk1, the “kcat/KM, Cln2” value was determined as 0.178 relative units. Besides, the “kcat/KM, Clb2” value with Clb2-Cdk1 came out at 2.961 relative units. Also, the “kcat/KM, Clb3” value with Clb3-Cdk1 is on record as 1.686 relative units. Moreover, in the series with Clb5-Cdk1, the “kcat/KM, Clb5” value is 0.475 relative units.
